Conditions in all cases: Sus scrofa
Series [1] deals with NC/C=C(\CF)C(=O)O. The series can be described thus: (§1) Compound was tested for the inhibitory effect against Gamma-amino-N-butyrate transaminase from pig brain, activity expressed as Km.
Series [2] deals with NC/C=C(\CO)C(=O)O. Described as §1.
Series [3] relates to NC/C=C(\CO)C(=O)O. Description: Compound was tested for the inhibitory effect against Gamma-amino-N-butyrate transaminase from pig brain, activity expressed as Vmax.

Consider one substance from ChEMBL document CHEMBL1123179, “4-Amino-2-(substituted methyl)-2-butenoic acids: substrates and potent inhibitors of gamma-aminobutyric acid aminotransferase” (J Med Chem, 1986).

4-aminobutyrate aminotransferase, mitochondrial (Sus scrofa), P80147, sequence (P80147 whole entry): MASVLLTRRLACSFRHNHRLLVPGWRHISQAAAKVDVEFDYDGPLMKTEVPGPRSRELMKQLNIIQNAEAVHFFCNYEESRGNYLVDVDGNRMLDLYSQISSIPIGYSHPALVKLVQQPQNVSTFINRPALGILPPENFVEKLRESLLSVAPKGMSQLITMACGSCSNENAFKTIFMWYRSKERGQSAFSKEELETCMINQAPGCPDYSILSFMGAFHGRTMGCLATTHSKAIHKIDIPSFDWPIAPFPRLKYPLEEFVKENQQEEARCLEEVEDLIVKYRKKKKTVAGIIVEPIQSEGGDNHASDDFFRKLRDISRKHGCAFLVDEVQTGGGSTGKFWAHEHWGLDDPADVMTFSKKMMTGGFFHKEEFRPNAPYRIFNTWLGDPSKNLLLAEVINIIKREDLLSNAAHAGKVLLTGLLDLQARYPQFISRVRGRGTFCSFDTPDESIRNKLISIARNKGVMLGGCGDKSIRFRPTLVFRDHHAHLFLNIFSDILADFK

For the substance “4-aminobutyrate aminotransferase, mitochondrial (Sus scrofa), P80147”, the Michaelis constant (Km) – broadly, the concentration of substrate that gives half-maximal velocity – in series [1] turned out to be 140 µM; in series [2] it was 10 µM. Moreover, the Vmax (usually the rate approached at saturating substrate) in series [3] came out at 0.012 µM/min/mg.
